From patent US20090162366A1

Legend:
[1] = molecular target: M2GHTGKS peptide conjugated with BSA (influenza A virus, A/chicken/HongKong/SF1/03 (H9N2)); assay: peptide-BSA ELISA; legend: EC50 > 10^-8M: -
[2] = molecular target: M2LTKGS peptide conjugated with BSA (influenza A virus, A/Hong Kong/542/97 (H5N1)); assay: peptide-BSA ELISA; legend: EC50 > 10^-8M: -
[3] = molecular target: M2TDGEKS peptide conjugated with BSA (influenza A virus, A/chicken/Pennsylvania/13552-1/98 (H7N2NSB)); assay: peptide-BSA ELISA; legend: EC50 > 10^-8M: -
[4] = molecular target: M2LTGEKS-BSA conjugate (influenza A virus, A/Hong Kong/1074/99 (H9N2)); assay: peptide-BSA ELISA; legend: EC50 > 10^-8M: -
[5] = molecular target: M2LTGS peptide conjugated with BSA (influenza A virus, A/Hong Kong/156/97 (H5N1)); assay: peptide-BSA ELISA; legend: EC50 > 10^-8M: -
[6] = molecular target: M2PHTGS peptide conjugated with BSA (influenza A virus, A/chicken/HongKong/YU427/03 (H9N2)); assay: peptide-BSA ELISA; legend: EC50 > 10^-8M: -
[7] = molecular target: M2KTGEKS peptide conjugated with BSA (influenza A virus, A/Quail/Arkansas/16309-7/94 (H7N3NSA)); assay: peptide-BSA ELISA; legend: EC50 > 10^-8M: -
[8] = molecular target: M2HTGEKS peptide conjugated with BSA (influenza A virus, A/chicken/California/1002a/00 (H6N2)); assay: peptide-BSA ELISA; legend: EC50 > 10^-8M: -
[9] = molecular target: M2TGEK-BSA conjugate (influenza A virus, A/Netherlands/33/03 (H7N7)); assay: peptide-BSA ELISA; legend: EC50 > 10^-8M: -
[10] = molecular target: M2TES peptide conjugated with BSA (influenza A virus, A/Viet Nam/1203/2004 (H5N1)); assay: peptide-BSA ELISA (++ EC50<10^-9M; + 10^-9M<EC50<10^-8M)
[11] = molecular target: M2TGS-BSA conjugate (influenza A virus, A/chicken/Shanghai/F/98 (H9N2)); assay: as above
[12] = molecular target: M2KGENS peptide conjugated with BSA (influenza A virus, A/Turkey/VA/158512/02 (H7N2)); assay: as above
[13] = molecular target: M2TGE-BSA conjugate (influenza A virus, A/DK/ST/5048/2001 (H3N8)); assay: as above
[14] = molecular target: M2DLTGS peptide conjugated with BSA (influenza A virus, A/Hong Kong/485/97 (H5N1)); assay: as above
[15] = molecular target: M2EG peptide conjugated with BSA (influenza A virus, A/New York/687/1995 (H3N2)); assay: as above
[16] = molecular target: M2-BSA conjugate (influenza A virus, A/Hong Kong/1/68 (H3N2)); assay: as above
[17] = molecular target: M2FG peptide conjugated with BSA (influenza A virus, A/X-31 (H3N2)); assay: as above
[18] = molecular target: M2TGEKS peptide conjugated with BSA (influenza A virus, A/Canada/rv504/2004 (H7N3)); assay: as above
[19] = molecular target: M2SG peptide conjugated with BSA (influenza A virus, A/swine/Tennessee/25/77 (H1N1)); assay: as above
[20] = molecular target: M2GHTGKS peptide conjugated with BSA (influenza A virus, A/chicken/HongKong/SF1/03 (H9N2)); assay: peptide-BSA ELISA
[21] = molecular target: M2LTKGS peptide conjugated with BSA (influenza A virus, A/Hong Kong/542/97 (H5N1)); assay: peptide-BSA ELISA
[22] = molecular target: M2TDGEKS peptide conjugated with BSA (influenza A virus, A/chicken/Pennsylvania/13552-1/98 (H7N2NSB)); assay: peptide-BSA ELISA
[23] = molecular target: M2LTGEKS-BSA conjugate (influenza A virus, A/Hong Kong/1074/99 (H9N2)); assay: peptide-BSA ELISA
[24] = molecular target: M2LTGS peptide conjugated with BSA (influenza A virus, A/Hong Kong/156/97 (H5N1)); assay: peptide-BSA ELISA
[25] = molecular target: M2PHTGS peptide conjugated with BSA (influenza A virus, A/chicken/HongKong/YU427/03 (H9N2)); assay: peptide-BSA ELISA
[26] = molecular target: M2KTGEKS peptide conjugated with BSA (influenza A virus, A/Quail/Arkansas/16309-7/94 (H7N3NSA)); assay: peptide-BSA ELISA
[27] = molecular target: M2HTGEKS peptide conjugated with BSA (influenza A virus, A/chicken/California/1002a/00 (H6N2)); assay: peptide-BSA ELISA
[28] = molecular target: M2TGEK-BSA conjugate (influenza A virus, A/Netherlands/33/03 (H7N7)); assay: peptide-BSA ELISA
[29] = molecular target: M2 peptide (influenza A virus, A/Hong Kong/1/68 (H3N2)); assay: ELISA on peptide, Ab 10 µg/ml
[30] = molecular target: M2HTGEKS (influenza A virus, A/chicken/California/1002a/00 (H6N2))
[31] = molecular target: M2TGE (influenza A virus, A/DK/ST/5048/2001 (H3N8))
[32] = molecular target: M2LTGS (influenza A virus, A/Hong Kong/156/97 (H5N1))
[33] = molecular target: M2LTKGS (influenza A virus, A/Hong Kong/542/97 (H5N1))
[34] = molecular target: M2PHTGS (influenza A virus, A/chicken/HongKong/YU427/03 (H9N2))
[35] = molecular target: M2LTGEKS (influenza A virus, A/Hong Kong/1074/99 (H9N2))
[36] = molecular target: M2TDGEKS (influenza A virus, A/chicken/Pennsylvania/13552-1/98 (H7N2NSB))
[37] = molecular target: M2KTGEKS (influenza A virus, A/Quail/Arkansas/16309-7/94 (H7N3NSA))
[38] = molecular target: M2GHTGKS (influenza A virus, A/chicken/HongKong/SF1/03 (H9N2))
[39] = molecular target: M2TGEKS (influenza A virus, A/Canada/rv504/2004 (H7N3))

Substance: mouse anti-M2 antibody 14C2
- EC50 [1]: > 10 nM
- EC50 [2]: > 10 nM
- EC50 [3]: > 10 nM
- EC50 [4]: > 10 nM
- EC50 [5]: > 10 nM
- EC50 [6]: > 10 nM
- EC50 [7]: > 10 nM
- EC50 [8]: > 10 nM
- EC50 [9]: > 10 nM
- EC50 [10]: < 1 nM
- EC50 [11]: < 1 nM
- EC50 [12]: < 1 nM
- EC50 [13]: < 1 nM
- EC50 [14]: 1 to 10 nM
- EC50 [15]: < 1 nM
- EC50 [16]: < 1 nM
- EC50 [17]: < 1 nM
- EC50 [18]: 1 to 10 nM
- EC50 [19]: < 1 nM
- EC50 [20]: > 10 nM
- EC50 [21]: > 10 nM
- EC50 [22]: > 10 nM
- EC50 [23]: > 10 nM
- EC50 [24]: > 10 nM
- EC50 [25]: > 10 nM
- EC50 [26]: > 10 nM
- EC50 [27]: > 10 nM
- EC50 [28]: > 10 nM
- ELISA(OD450) [29]: 1.97 OD450
- % of O.D. on M2 (SEQ ID NO:1) [30]: < 10%
- % of O.D. on M2 (SEQ ID NO:1) [31]: < 10%
- % of O.D. on M2 (SEQ ID NO:1) [32]: < 10%
- % of O.D. on M2 (SEQ ID NO:1) [33]: < 10%
- % of O.D. on M2 (SEQ ID NO:1) [34]: < 10%
- % of O.D. on M2 (SEQ ID NO:1) [35]: < 10%
- % of O.D. on M2 (SEQ ID NO:1) [36]: < 10%
- % of O.D. on M2 (SEQ ID NO:1) [37]: < 10%
- % of O.D. on M2 (SEQ ID NO:1) [38]: < 10%
- % of O.D. on M2 (SEQ ID NO:1) [39]: < 10%
